This assay concerns the target transferrin receptor (on Hepa 1-6 cells; in tissues of C57BL/6 wild-type mice) (mouse) (UniProt Q62351). The assay is described as follows: cell-based or functional assay.
Sequence of UniProt Q62351 (Q62351 whole entry): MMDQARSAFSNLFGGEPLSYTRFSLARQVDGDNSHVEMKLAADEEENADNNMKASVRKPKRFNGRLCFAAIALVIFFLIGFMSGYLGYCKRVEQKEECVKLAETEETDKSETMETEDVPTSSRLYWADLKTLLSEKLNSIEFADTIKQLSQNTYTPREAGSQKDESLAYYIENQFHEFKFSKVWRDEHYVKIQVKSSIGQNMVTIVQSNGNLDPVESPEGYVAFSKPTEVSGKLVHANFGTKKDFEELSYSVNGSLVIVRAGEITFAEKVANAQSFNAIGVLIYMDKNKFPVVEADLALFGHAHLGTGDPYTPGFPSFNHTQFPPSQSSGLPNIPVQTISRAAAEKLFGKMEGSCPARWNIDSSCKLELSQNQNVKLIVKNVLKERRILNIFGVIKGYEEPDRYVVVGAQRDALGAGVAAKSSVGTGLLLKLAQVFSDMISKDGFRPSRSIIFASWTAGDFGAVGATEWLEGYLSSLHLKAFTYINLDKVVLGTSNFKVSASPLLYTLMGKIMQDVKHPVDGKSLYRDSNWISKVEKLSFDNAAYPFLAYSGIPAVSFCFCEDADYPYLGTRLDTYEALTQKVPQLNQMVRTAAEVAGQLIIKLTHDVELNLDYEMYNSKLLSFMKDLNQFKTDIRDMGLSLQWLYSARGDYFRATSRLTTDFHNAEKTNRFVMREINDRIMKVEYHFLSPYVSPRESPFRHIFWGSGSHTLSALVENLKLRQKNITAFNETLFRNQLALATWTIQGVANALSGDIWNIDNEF

Substance “antiTfR-siHPRT complex: RI7 217 anti-TfR1 Fab (DTX-A-002) covalently linked via a non-cleavable GMBS linker to HPRT siRNA (siHPRT)” came in with a reduction in HPRT expression in Hepa 1-6 cells (100 nM complex, 72 hours) of 50%; a reduction in HPRT expression in gastrocnemius of C57BL/6 mice (single i.v. dose, 2 mg/kg RNA, day 3) of 31%; a reduction in HPRT expression in heart of C57BL/6 mice (single i.v. dose, 2 mg/kg RNA, day 3) of 30%.

For the origin of these results see US20230203180A1.
